This experiment has as its target CD40 (UniProt P25942). Put plainly: cell-based or functional assay.

Take LOB7/6 (antibody): the EC50 from CD40 activation experiments (bioluminescent CD40 effector CHO cell assay) was -1.47 log(µM).

Source of the values: patent publication US20230233707A1.
